In publication PMC5843810, “18th European Symposium on Radiopharmacy and Radiopharmaceuticals” (EJNMMI Radiopharmacy and Chemistry, 2016):

Target: Gastrin-Releasing Peptide Receptor (human (endogenous in PC3)) (UniProt P30550)
Experiment: radioligand binding; displacement of the small-molecule tracer [18F]PD410 from PC3 cells by increasing concentrations of the peptide

Sequence of Gastrin-Releasing Peptide Receptor (human (endogenous in PC3)) (P30550 whole entry): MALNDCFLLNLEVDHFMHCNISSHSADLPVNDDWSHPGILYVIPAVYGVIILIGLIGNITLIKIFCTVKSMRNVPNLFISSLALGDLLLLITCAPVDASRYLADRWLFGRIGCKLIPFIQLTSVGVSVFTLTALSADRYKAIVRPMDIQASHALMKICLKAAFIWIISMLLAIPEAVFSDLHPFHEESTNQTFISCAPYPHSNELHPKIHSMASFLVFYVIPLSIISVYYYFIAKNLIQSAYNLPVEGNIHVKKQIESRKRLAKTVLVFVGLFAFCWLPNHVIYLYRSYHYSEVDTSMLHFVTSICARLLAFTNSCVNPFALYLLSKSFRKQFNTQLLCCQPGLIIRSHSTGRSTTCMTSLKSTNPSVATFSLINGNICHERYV

- IC50: 0.1 nM
Substance: Glu[Aca-BN(7-14)]2 (peptide)
